In patent US20160108110A1 (Novartis, published 2016):

Target: T1, Human ANGPTL4(26-406)-FLAG-His6-Avi (human, UniProt Q9BY76 24-406, biotin on the C-terminal Avi tag in the biotinylated preparations (immobilised form in SET, ELISA and Octet))
T1 construct: also called full-length human ANGPTL4; hANGPTL4
T1 sequence: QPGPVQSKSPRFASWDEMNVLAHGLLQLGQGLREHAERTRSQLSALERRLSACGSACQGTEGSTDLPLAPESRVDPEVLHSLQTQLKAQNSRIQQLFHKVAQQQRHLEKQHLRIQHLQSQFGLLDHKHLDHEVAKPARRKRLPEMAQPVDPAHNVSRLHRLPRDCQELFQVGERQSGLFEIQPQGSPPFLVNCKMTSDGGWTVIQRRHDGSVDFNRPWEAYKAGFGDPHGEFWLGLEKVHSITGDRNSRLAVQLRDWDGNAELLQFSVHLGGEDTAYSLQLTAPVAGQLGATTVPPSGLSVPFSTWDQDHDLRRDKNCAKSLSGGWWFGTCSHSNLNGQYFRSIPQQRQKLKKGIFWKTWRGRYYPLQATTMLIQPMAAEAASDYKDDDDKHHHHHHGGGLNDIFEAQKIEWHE
Experiment: SET assay
Procedure: SET assays were performed as follows. In a 96-well polypropylene plate, a constant concentration of ANGPTL4 antibody was mixed with different concentrations of non-biotinylated human, cyno, mouse, or rat full-length ANPGLT4 protein, or human ANGPTL4 N-terminal domain protein (5-fold serial dilution) and incubated at 22° C. for 14 hours with constant shaking (300 rpm). On a pre-blocked 384-well streptavidin-coated Meso Scale Discovery (MSD) plate biotinylated ANGPTL4 (full-length human, cyno, mouse, or rat ANGPTL4, or human ANGPTL4 N-terminal domain) protein (1 nM, 15 μL per well) was immobilized and washed thereafter.
The equilibrium binding reactions (15 μL per well) were applied to the MSD plate with immobilized ANGPTL4 and incubated for 20 min at 22° C. The unbound material was removed by washing the plate 3 times with wash buffer, and the captured antibody was detected by adding Sulfo-tagged goat anti-human IgG (Meso Scale Discovery). After washing MSD read buffer T was added and the plate was developed using a Sector Imager 6000 (Meso Scale Discovery). The data were transferred to Microsoft Excel for analysis and plotted using GraphPad Prism v6. The KD values were determined by fitting the data to the following equation: […]
where Bₘₐₓ is the signal when no ANGPTL4 protein is present in solution, CAb is the constant concentration of ANGPTL4 antibody in solution, CAg is the concentration of ANGPTL4 in solution, and KD is the equilibrium dissociation constant.

Row | Binder | Kd [pM]
1 | MOR023400 (antibody, human IgG1, kappa, V domains shown, built on the parent antibody for IgG conversion MOR022771 with residues 48-66 of the heavy chain replaced; Parent Fab MOR021830) VH: EVQLLESGGGLVQPGGSLRLSCAASGFTFSSYWMHWVRQAPGKGLEWVSGIPYQGPAINYADSVKGRFTISRDNSKNTLYLQMNSLRAEDTAVYYCARDSYIYDLHWGFDNWGQGTLVTVSS VL: DIQMTQSPSSLSASVGDRVTITCRASQDISSYLNWYQQKPGKAPKLLIYAASRLQSGVPSRFSGSGSGTDFTLTISSLQPEDFATYYCQQSYTHPYTFGQGTKVEIKR | 1
2 | MOR023402 (antibody, human IgG1, kappa, V domains shown, as MOR023400: built on MOR022771, limits derived) VH: EVQLLESGGGLVQPGGSLRLSCAASGFTFSSYWMHWVRQAPGKGLEWVSVIGYSGTHTNYADSVKGRFTISRDNSKNTLYLQMNSLRAEDTAVYYCARDSYIYDLHWGFDNWGQGTLVTVSS VL: DIQMTQSPSSLSASVGDRVTITCRASQDISSYLNWYQQKPGKAPKLLIYAASRLQSGVPSRFSGSGSGTDFTLTISSLQPEDFATYYCQQSYTHPYTFGQGTKVEIKR | 1
3 | MOR023406 (antibody, human IgG1, kappa, V domains shown, as MOR023400: built on MOR022771, limits derived) VH: EVQLLESGGGLVQPGGSLRLSCAASGFTFSSYWMHWVRQAPGKGLEWVSYIPYMGPGKFYADSVKGRFTISRDNSKNTLYLQMNSLRAEDTAVYYCARDSYIYDLHWGFDNWGQGTLVTVSS VL: DIQMTQSPSSLSASVGDRVTITCRASQDISSYLNWYQQKPGKAPKLLIYAASRLQSGVPSRFSGSGSGTDFTLTISSLQPEDFATYYCQQSYTHPYTFGQGTKVEIKR | 3
4 | MOR023407 (antibody, human IgG1, kappa, V domains shown, built on the parent antibody for IgG conversion MOR022771 with residues 89-96 of the light chain replaced; Parent Fab MOR021830 has another HCDR2 (D53) and Q1 in the VH) VH: EVQLLESGGGLVQPGGSLRLSCAASGFTFSSYWMHWVRQAPGKGLEWVSGISYSGSSTNYADSVKGRFTISRDNSKNTLYLQMNSLRAEDTAVYYCARDSYIYDLHWGFDNWGQGTLVTVSS VL: DIQMTQSPSSLSASVGDRVTITCRASQDISSYLNWYQQKPGKAPKLLIYAASRLQSGVPSRFSGSGSGTDFTLTISSLQPEDFATYYCFQMYYHPYTFGQGTKVEIKR | 1
5 | MOR023410 (antibody, human IgG1, kappa, V domains shown, as MOR023407: built on MOR022771, limits derived) VH: EVQLLESGGGLVQPGGSLRLSCAASGFTFSSYWMHWVRQAPGKGLEWVSGISYSGSSTNYADSVKGRFTISRDNSKNTLYLQMNSLRAEDTAVYYCARDSYIYDLHWGFDNWGQGTLVTVSS VL: DIQMTQSPSSLSASVGDRVTITCRASQDISSYLNWYQQKPGKAPKLLIYAASRLQSGVPSRFSGSGSGTDFTLTISSLQPEDFATYYCQQAYFAPYTFGQGTKVEIKR | < 1
6 | MOR023411 (antibody, human IgG1, kappa, V domains shown, as MOR023407: built on MOR022771, limits derived) VH: EVQLLESGGGLVQPGGSLRLSCAASGFTFSSYWMHWVRQAPGKGLEWVSGISYSGSSTNYADSVKGRFTISRDNSKNTLYLQMNSLRAEDTAVYYCARDSYIYDLHWGFDNWGQGTLVTVSS VL: DIQMTQSPSSLSASVGDRVTITCRASQDISSYLNWYQQKPGKAPKLLIYAASRLQSGVPSRFSGSGSGTDFTLTISSLQPEDFATYYCQQAYYHPYTFGQGTKVEIKR | 2
7 | MOR023412 (antibody, human IgG1, kappa, V domains shown, as MOR023407: built on MOR022771, limits derived) VH: EVQLLESGGGLVQPGGSLRLSCAASGFTFSSYWMHWVRQAPGKGLEWVSGISYSGSSTNYADSVKGRFTISRDNSKNTLYLQMNSLRAEDTAVYYCARDSYIYDLHWGFDNWGQGTLVTVSS VL: DIQMTQSPSSLSASVGDRVTITCRASQDISSYLNWYQQKPGKAPKLLIYAASRLQSGVPSRFSGSGSGTDFTLTISSLQPEDFATYYCQQAYYPPYTFGQGTKVEIKR | 1
8 | MOR023413 (antibody, human IgG1, kappa, V domains shown, as MOR023407: built on MOR022771, limits derived) VH: EVQLLESGGGLVQPGGSLRLSCAASGFTFSSYWMHWVRQAPGKGLEWVSGISYSGSSTNYADSVKGRFTISRDNSKNTLYLQMNSLRAEDTAVYYCARDSYIYDLHWGFDNWGQGTLVTVSS VL: DIQMTQSPSSLSASVGDRVTITCRASQDISSYLNWYQQKPGKAPKLLIYAASRLQSGVPSRFSGSGSGTDFTLTISSLQPEDFATYYCQQYYYPPYTFGQGTKVEIKR | < 1
9 | MOR023416 (antibody, V domains shown, as MOR023415: built on parent Fab MOR021798, limits derived) VH: QVQLLESGGGLVQPGGSLRLSCAASGFTFSDYALHWVRQAPGKGLEWVSRITYTGLYTYYADSVKGRFTISRDNSKNTLYLQMNSLRAEDTAVYYCAREHYYSSPMGGVAVDNWGQGTLVTVSS VL: DIVLTQPPSVSGAPGQRVTISCSGSSSNIGYNTVSWYQQLPGTAPKLLIYSNNIRPSGVPDRFSGSKSGTSASLAITGLQAEDEADYYCSSWDFLIKSLVFGGGTKLTVL | 1
10 | MOR023415 (antibody, V domains shown, built on parent Fab MOR021798 with residues 48-66 of the VH replaced) VH: QVQLLESGGGLVQPGGSLRLSCAASGFTFSDYALHWVRQAPGKGLEWVSRITYTGFYTFYADSVKGRFTISRDNSKNTLYLQMNSLRAEDTAVYYCAREHYYSSPMGGVAVDNWGQGTLVTVSS VL: DIVLTQPPSVSGAPGQRVTISCSGSSSNIGYNTVSWYQQLPGTAPKLLIYSNNIRPSGVPDRFSGSKSGTSASLAITGLQAEDEADYYCSSWDFLIKSLVFGGGTKLTVL | 1
11 | MOR023417 (antibody, V domains shown, as MOR023415: built on parent Fab MOR021798, limits derived) VH: QVQLLESGGGLVQPGGSLRLSCAASGFTFSDYALHWVRQAPGKGLEWVSRITYTGMWTEYADSVKGRFTISRDNSKNTLYLQMNSLRAEDTAVYYCAREHYYSSPMGGVAVDNWGQGTLVTVSS VL: DIVLTQPPSVSGAPGQRVTISCSGSSSNIGYNTVSWYQQLPGTAPKLLIYSNNIRPSGVPDRFSGSKSGTSASLAITGLQAEDEADYYCSSWDFLIKSLVFGGGTKLTVL | 6
12 | MOR023418 (antibody, V domains shown, as MOR023415: built on parent Fab MOR021798, limits derived) VH: QVQLLESGGGLVQPGGSLRLSCAASGFTFSDYALHWVRQAPGKGLEWVSRITYTGQYKYYADSVKGRFTISRDNSKNTLYLQMNSLRAEDTAVYYCAREHYYSSPMGGVAVDNWGQGTLVTVSS VL: DIVLTQPPSVSGAPGQRVTISCSGSSSNIGYNTVSWYQQLPGTAPKLLIYSNNIRPSGVPDRFSGSKSGTSASLAITGLQAEDEADYYCSSWDFLIKSLVFGGGTKLTVL | 19

More lines, now with the values ahead:

Row | Kd [pM] | Binder
13 | < 1 | MOR023439 (antibody, human IgG1, kappa, V domains shown, built on the parent antibody for IgG conversion MOR022768 with residues 48-66 of the heavy chain replaced; Parent Fab MOR021823) VH: EVQLLESGGGLVQPGGSLRLSCAASGFTFSSYYLHWVRQAPGKGLEWVSGISSGGSYINYADSVKGRFTISRDNSKNTLYLQMNSLRAEDTAVYYCARERSYAHDHWGQGTLVTVSS VL: DIQMTQSPSSLSASVGDRVTITCRASQDIYIDLNWYQQKPGKAPKLLIYAASKLQSGVPSRFSGSGSGTDFTLTISSLQPEDFATYYCQQGYFLPQTFGQGTKVEIKR
14 | < 1 | MOR023441 (antibody, human IgG1, kappa, V domains shown, as MOR023439: built on MOR022768, limits derived) VH: EVQLLESGGGLVQPGGSLRLSCAASGFTFSSYYLHWVRQAPGKGLEWVSSIAGMGNYIDYADSVKGRFTISRDNSKNTLYLQMNSLRAEDTAVYYCARERSYAHDHWGQGTLVTVSS VL: DIQMTQSPSSLSASVGDRVTITCRASQDIYIDLNWYQQKPGKAPKLLIYAASKLQSGVPSRFSGSGSGTDFTLTISSLQPEDFATYYCQQGYFLPQTFGQGTKVEIKR
15 | < 1 | MOR023443 (antibody, human IgG1, kappa, V domains shown, as MOR023439: built on MOR022768, limits derived) VH: EVQLLESGGGLVQPGGSLRLSCAASGFTFSSYYLHWVRQAPGKGLEWVSSIASSSPATHYADSVKGRFTISRDNSKNTLYLQMNSLRAEDTAVYYCARERSYAHDHWGQGTLVTVSS VL: DIQMTQSPSSLSASVGDRVTITCRASQDIYIDLNWYQQKPGKAPKLLIYAASKLQSGVPSRFSGSGSGTDFTLTISSLQPEDFATYYCQQGYFLPQTFGQGTKVEIKR
16 | < 1 | MOR023446 (antibody, human IgG1, kappa, V domains shown, as MOR023439: built on MOR022768, limits derived) VH: EVQLLESGGGLVQPGGSLRLSCAASGFTFSSYYLHWVRQAPGKGLEWVSSISSAGHYIDYADSVKGRFTISRDNSKNTLYLQMNSLRAEDTAVYYCARERSYAHDHWGQGTLVTVSS VL: DIQMTQSPSSLSASVGDRVTITCRASQDIYIDLNWYQQKPGKAPKLLIYAASKLQSGVPSRFSGSGSGTDFTLTISSLQPEDFATYYCQQGYFLPQTFGQGTKVEIKR
17 | < 1 | MOR023447 (antibody, human IgG1, kappa, V domains shown, as MOR023439: built on MOR022768, limits derived) VH: EVQLLESGGGLVQPGGSLRLSCAASGFTFSSYYLHWVRQAPGKGLEWVSSISSAGVYKDYADSVKGRFTISRDNSKNTLYLQMNSLRAEDTAVYYCARERSYAHDHWGQGTLVTVSS VL: DIQMTQSPSSLSASVGDRVTITCRASQDIYIDLNWYQQKPGKAPKLLIYAASKLQSGVPSRFSGSGSGTDFTLTISSLQPEDFATYYCQQGYFLPQTFGQGTKVEIKR
18 | < 1 | MOR023448 (antibody, human IgG1, kappa, V domains shown, as MOR023439: built on MOR022768, limits derived) VH: EVQLLESGGGLVQPGGSLRLSCAASGFTFSSYYLHWVRQAPGKGLEWVSSISSISGFTEYADSVKGRFTISRDNSKNTLYLQMNSLRAEDTAVYYCARERSYAHDHWGQGTLVTVSS VL: DIQMTQSPSSLSASVGDRVTITCRASQDIYIDLNWYQQKPGKAPKLLIYAASKLQSGVPSRFSGSGSGTDFTLTISSLQPEDFATYYCQQGYFLPQTFGQGTKVEIKR
